{
  "source": "paper PMC9482095",
  "binders": {"B1": {"name": "dsIRE (dsDNA)", "DNA 1": "TAAGCTAGTGGTTTGTTTTGCTTGCTAGCAAT", "DNA 2": "ATTGCTAGCAAGCAAAACAAACCACTAGCTTA"}, "B2": {"name": "dsDBE2 (dsDNA)", "DNA 1": "TAAGCTAGTCTTGTTTACATTTTGCTAGCAAT", "DNA 2": "ATTGCTAGCAAAATGTAAACAAGACTAGCTTA"}},
  "key": {"FOXO1 FKH wt [1]": {"target": "T1, FOXO1 FKH wt (UniProt Q12778 151-265)", "assay": "EMSA"}, "FOXO1 FKH wt [2]": {"target": "T1, FOXO1 FKH wt", "assay": "EMSA", "remark": "listed apart in the source"}},
  "note": "Read-outs that look alike come from different tables or passages of the source.",
  "data": [
    {"binder": "B1", "values": [
      {"measurement": "Kd", "setting": "FOXO1 FKH wt [1]", "value": "200 ± 70", "unit": "nM"}
    ]},
    {"binder": "B2", "values": [
      {"measurement": "Kd", "setting": "FOXO1 FKH wt [2]", "value": 90, "unit": "nM"}
    ]}
  ]
}
